Laboratory results published in patent publication US20230414780A1 (VECT HORUS, published 2023).
Substitutions are numbered along the chain they refer to.

B1: A9a (VHH)
VHH: QVQLVQSGGGLVQAGGSLRLSCAASGSIFLINDMGWYRQAPGKQRELVAVRGGSTKYGDSVKGRFTISRDDAKNTVYLQMNSLKPEDTAVYYCHRESGLGSSEYWGQGTQVTVSS
B2: C5^V13h20 (VHH)
VHH: EVQLVESGGGVVQPGGSLRLSCAASGTDFSINFIRWYRQAPGKGLEFVAGFSATGNTNYADSVKGRFTISRDNAKNAVYLQMNSLRPEDTAVYYCYMLDKWGQGTQVTVSS
B3: C5^h20 (VHH)
VHH: B2 VHH with S52T
B4: C5^h25 (VHH)
VHH: B2 VHH with Y37V, S52T, A77T, V78L, M82I, N83D
B5: VHH A8 (C5^V8) (VHH)
VHH: EVQLVESGGGVVQPGGSLKLSCVASGTDFSINFIRWYRQAPGKQREFVAGFTATGNTNYADSMKGRFTISRDNTKNAVYLQIDSLKPEDTAVYYCYMLAKWGQGTQVTVSS
B6: VHH A16 (C5^V16) (VHH)
VHH: B5 VHH with M97I, A99D
B7: C5^h22 (VHH)
VHH: B2 VHH with L45R, S52T, A77T, V78L
B8: VHH D (H3) (VHH)
VHH: EVQLVESGGGEVQPGGSLKLSCVASGTDFSINFVRWYRQRPGKQREWVAGFTANGDTNYPDSMKGRFTISRDNAKNTVYLQINSLKSEDTAVYYCYMLDNWGQGTQVTVSS
B9: VHH A18 (C5^V18) (VHH)
VHH: B5 VHH with L98V, A99D
B10: C5^h9 (VHH)
VHH: B2 VHH with S52T, A77T, V78L
B11: B4a (VHH)
VHH: EVQLVESGGGLVQAGGSLRLSCTASGRTVSNYRMGWFRQTPGKEREFVAAIAWAGGSLTYADSVKGRFTISRDNAKNTVYLQMNSLEPTDTAVYYCKGSRIFPTRDYWGKGTQVTVSS
B12: B8^V1 (VHH)
VHH: EVQLVESGGGVVQPGGSLRLSCAADGEIFSINFMRWYRQAPGKQREWVAGFTRDGSTNYPDSAKGRFTISRDNAKNTVYLQIDSLKPEDTAVYYCYMLDTWGQGTQVTVSS
B13: B8^V20 (VHH)
VHH: B12 VHH with D25S, T57H
B14: B8^V7 (VHH)
VHH: B12 VHH with D25S, S56Y
B15: B8^V28 (VHH)
VHH: B12 VHH with D25S, N58F
B16: B8^V8 (VHH)
VHH: B12 VHH with D25S, T57L
B17: B8^V30 (VHH)
VHH: B12 VHH with D25S, L98Q
B18: B8^V17 (VHH)
VHH: B12 VHH with D25S, W47F
B19: B8^V14 (VHH)
VHH: B12 VHH with D25S, D54L
B20: B8^V21 (VHH)
VHH: B12 VHH with D25S, F33N
B21: B8^V25 (VHH)
VHH: B12 VHH with D25S, G50A
B22: B8^V19 (VHH)
VHH: B12 VHH with D25S, E46H
B23: B8^V9 (VHH)
VHH: B12 VHH with D25S, T57K
B24: B8^V15 (VHH)
VHH: B12 VHH with D25S, G55D
B25: B8^V18 (VHH)
VHH: B12 VHH with D25S, F29H
B26: B8^V6 (VHH)
VHH: B12 VHH with D25S, S56F
B27: B8^V11 (VHH)
VHH: B12 VHH with D25S, G26D
B28: B8^V23 (VHH)
VHH: B12 VHH with D25S, R35I

Legend:
[1] = molecular target: T1, human transferrin receptor (hTfR) fused to EGFP, on CHO cells (human, UniProt P02786 1-760); test: apparent Kd, flow cytometry, CHO cells
T1 construct: whole, on cells; also called human TfR; CHO-hTfR-EGFP; not shown: EGFP from pEGFP-C1 vector, fused to the N-terminal (intracellular) end of hTfR
T1 sequence (P02786 whole entry, the tested form may be a part): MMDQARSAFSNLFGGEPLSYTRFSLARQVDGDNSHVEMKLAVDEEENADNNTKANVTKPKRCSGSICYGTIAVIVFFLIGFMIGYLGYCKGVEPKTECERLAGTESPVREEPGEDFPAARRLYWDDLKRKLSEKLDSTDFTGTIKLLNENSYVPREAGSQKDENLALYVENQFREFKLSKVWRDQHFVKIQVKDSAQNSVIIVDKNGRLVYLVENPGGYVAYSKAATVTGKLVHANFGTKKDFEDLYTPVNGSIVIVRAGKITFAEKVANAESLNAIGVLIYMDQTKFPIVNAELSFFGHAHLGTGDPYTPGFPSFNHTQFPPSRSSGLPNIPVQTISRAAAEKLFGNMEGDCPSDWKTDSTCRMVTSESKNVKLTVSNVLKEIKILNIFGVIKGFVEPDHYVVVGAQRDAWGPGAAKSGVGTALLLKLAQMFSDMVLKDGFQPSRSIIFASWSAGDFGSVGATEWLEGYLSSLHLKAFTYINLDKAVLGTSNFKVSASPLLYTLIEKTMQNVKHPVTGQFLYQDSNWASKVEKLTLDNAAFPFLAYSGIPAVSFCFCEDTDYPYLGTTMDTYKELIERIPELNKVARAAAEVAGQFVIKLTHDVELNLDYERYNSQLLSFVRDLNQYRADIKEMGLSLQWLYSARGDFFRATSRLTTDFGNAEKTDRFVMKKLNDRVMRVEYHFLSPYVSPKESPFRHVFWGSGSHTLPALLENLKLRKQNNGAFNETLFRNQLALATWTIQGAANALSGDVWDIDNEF
Procedure: (§1) The binding properties of VHHs with affinity for the TfR from different species (i.e., human (h), mouse (m) and rhesus monkey (rh)) were tested using flow cytometry, and apparent affinities (Kd app) were determined. All experiments were performed in 96 well plates using 2×10⁵ cells/well, at 4° C. with shaking. CHO cell lines expressing the hTfR, mTfR or rhTfR fused to EGFP were saturated with PBS/BSA 2% solution during 30 min to avoid nonspecific binding, followed by incubation with purified VHHs at increasing concentrations for 1 hr. After one wash in PBS/BSA 2%, cells were incubated for 1 hr with an anti-6His tag antibody (mouse), washed twice with PBS/BSA 2%, and incubated for 1 hr with an Alexa647-conjugated anti-mouse secondary antibody. After two last washes in PBS/BSA 2%, cells were fixed by incubation for 15 min with PBS/PFA 2%, washed once with PBS and finally resuspended in PBS. Fluorescence levels were assessed using an Attune NxT flow cytometer (Thermo Fisher Scientific). Experimental data were fitted with GraphPad Prism® software using a nonlinear fit to determine the apparent Kd constants. […] Table 5 hereafter summarizes apparent Kd obtained for the tested VHHs.

[2] = molecular target: T2, mouse transferrin receptor (mTfR) fused to EGFP, on CHO cells (mouse, UniProt Q62351 1-763); test: apparent Kd, flow cytometry, CHO cells
T2 construct: whole, on cells; also called mouse TfR; CHO-mTfR-EGFP; not shown: EGFP
T2 sequence (Q62351 whole entry, the tested form may be a part): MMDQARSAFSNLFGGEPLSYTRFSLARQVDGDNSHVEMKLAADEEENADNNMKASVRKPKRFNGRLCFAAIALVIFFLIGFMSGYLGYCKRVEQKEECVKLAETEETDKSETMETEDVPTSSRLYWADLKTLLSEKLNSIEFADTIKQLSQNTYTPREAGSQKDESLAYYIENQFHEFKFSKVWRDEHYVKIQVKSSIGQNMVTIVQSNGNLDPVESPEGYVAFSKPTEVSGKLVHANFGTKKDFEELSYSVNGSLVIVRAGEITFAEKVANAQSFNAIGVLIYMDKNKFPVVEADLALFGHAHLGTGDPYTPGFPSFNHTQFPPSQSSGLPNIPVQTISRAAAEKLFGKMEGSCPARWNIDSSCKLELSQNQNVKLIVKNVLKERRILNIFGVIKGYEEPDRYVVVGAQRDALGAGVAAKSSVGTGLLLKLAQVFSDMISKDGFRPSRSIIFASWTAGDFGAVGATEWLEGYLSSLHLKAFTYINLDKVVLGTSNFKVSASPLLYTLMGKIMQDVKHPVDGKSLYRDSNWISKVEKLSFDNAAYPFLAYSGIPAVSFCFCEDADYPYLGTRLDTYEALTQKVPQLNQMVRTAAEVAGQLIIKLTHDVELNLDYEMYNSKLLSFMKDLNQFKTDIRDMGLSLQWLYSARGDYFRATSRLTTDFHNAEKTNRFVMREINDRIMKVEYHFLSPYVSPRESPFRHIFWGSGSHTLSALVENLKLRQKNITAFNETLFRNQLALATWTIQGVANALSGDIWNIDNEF
Procedure: as §1

[3] = molecular target: T3, rhesus monkey transferrin receptor (rhTfR) fused to EGFP, on CHO cells (rhesus monkey); test: apparent Kd, flow cytometry, CHO cells
T3 construct: whole, on cells; also called rhesus monkey TfR
Procedure: as §1

[4] = molecular target: T4, human TfR ectodomain fused to a mouse IgG1 Fc fragment (human, UniProt P02786 89-760); test: SPR, kinetic
T4 construct: extracellular domain; ectodomain fused to the N-terminal end of the Fc, made in-house; not shown: mouse IgG1 Fc fragment
T4 sequence (P02786 89-760): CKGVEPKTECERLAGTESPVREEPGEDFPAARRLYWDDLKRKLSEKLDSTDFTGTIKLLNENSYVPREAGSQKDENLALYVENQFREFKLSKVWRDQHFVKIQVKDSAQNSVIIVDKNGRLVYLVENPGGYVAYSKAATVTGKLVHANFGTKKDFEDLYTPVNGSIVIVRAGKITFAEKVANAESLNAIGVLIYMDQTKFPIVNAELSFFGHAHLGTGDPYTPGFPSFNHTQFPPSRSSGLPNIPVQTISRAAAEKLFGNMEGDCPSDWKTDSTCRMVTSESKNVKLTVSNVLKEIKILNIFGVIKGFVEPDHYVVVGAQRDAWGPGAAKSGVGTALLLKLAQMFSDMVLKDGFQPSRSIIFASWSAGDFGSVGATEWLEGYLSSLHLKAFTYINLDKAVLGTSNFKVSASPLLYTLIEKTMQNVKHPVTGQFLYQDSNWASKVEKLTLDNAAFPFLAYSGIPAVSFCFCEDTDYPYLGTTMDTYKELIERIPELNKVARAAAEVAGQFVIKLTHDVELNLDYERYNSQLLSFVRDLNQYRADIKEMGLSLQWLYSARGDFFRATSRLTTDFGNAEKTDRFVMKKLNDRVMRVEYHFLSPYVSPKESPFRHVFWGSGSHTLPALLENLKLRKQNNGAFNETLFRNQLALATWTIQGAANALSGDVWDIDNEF
Procedure: (§2) Binding properties of some VHHs were also evaluated using Surface Plasmon Resonance (SPR) experiments. The human, mouse and rhesus monkey TfR (having respectively GeneBank number NM_003234.2, NM_011638, NC_041755.1) ectodomains were fused to the N-terminal end of a mouse IgG1 Fc fragment and the recombinant proteins were produced and purified in-house. Interaction of VHHs with the receptors was tested using a Biacore T200 (GE Healthcare). Receptors were immobilized on an HC 1500M or a CM5 sensor chip (Xantec) either directly or on an anti-mouse IgG previously immobilized. VHHs were injected over flowcell by using the single-cycle kinetic or the multiple-cycle kinetic methods.

[5] = molecular target: T4, human TfR ectodomain fused to a mouse …; test: SPR, at equilibrium
Procedure: as §2

[6] = molecular target: T5, mouse TfR ectodomain fused to a mouse IgG1 Fc fragment (mouse, UniProt Q62351 89-763); test: SPR, kinetic
T5 construct: extracellular domain; not shown: mouse IgG1 Fc fragment
T5 sequence (Q62351 89-763): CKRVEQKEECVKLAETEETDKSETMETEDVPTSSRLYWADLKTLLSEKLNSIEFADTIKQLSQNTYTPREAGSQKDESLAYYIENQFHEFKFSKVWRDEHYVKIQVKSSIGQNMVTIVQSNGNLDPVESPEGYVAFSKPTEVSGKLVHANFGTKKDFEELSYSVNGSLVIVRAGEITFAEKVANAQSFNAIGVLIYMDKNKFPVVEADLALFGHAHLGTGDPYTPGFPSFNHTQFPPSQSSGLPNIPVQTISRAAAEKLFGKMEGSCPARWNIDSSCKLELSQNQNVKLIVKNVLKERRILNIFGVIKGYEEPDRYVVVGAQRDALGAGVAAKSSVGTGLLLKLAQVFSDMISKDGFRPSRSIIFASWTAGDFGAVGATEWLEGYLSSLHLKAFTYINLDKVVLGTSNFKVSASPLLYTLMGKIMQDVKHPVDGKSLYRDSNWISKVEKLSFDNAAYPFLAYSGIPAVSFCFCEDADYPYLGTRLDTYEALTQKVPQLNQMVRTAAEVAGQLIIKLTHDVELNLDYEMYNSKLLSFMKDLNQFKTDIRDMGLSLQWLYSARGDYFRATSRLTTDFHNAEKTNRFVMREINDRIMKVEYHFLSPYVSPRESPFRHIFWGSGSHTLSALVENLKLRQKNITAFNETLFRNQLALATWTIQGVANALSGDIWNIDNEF
Procedure: as §2

Row | Binder | Kd [1] [nM] | Kd [2] [nM] | Kd [3] [nM] | Kd [4] [nM] | koff [4] [s⁻¹] | kon [4] [M⁻¹ s⁻¹] | Kd [5] [nM] | Kd [6] [nM] | koff [6] [s⁻¹] | kon [6] [M⁻¹ s⁻¹]
1 | B1 | 1860 | 841 | 965 | – | – | – | – | – | – | –
2 | B2 | 3.8 | 246 | 549 | 4.55 | 0.00357 | 786000 | – | – | – | –
3 | B3 | 4.1 | 22 | 40 | 0.985 | 0.00105 | 866000 | – | – | – | –
4 | B4 | 777 | 755 | – | – | – | – | 1550 | – | – | –
5 | B5 | 23 | 427 | 494 | 94.8 | 0.0558 | 504000 | 84.3 | – | – | –
6 | B6 | 4.7 | 131 | 425 | 14.5 | 0.00577 | 459000 | – | – | – | –
7 | B7 | 4.9 | 602 | 755 | 8.96 | 0.00906 | 1.5e+06 | – | – | – | –
8 | B8 | 1.9 | 56 | 1.5 | 0.0333 | 3.3e-05 | 1.01e+06 | – | 15.6 | 0.00909 | 581000
9 | B9 | 12 | 416 | 481 | 43.3 | 0.021 | 487000 | 37.8 | – | – | –
10 | B10 | 6.1 | 431 | 493 | 10.6 | 0.00582 | 549000 | – | – | – | –
11 | B11 | 692 | 409 | 479 | – | – | – | – | – | – | –
12 | B12 | 192 | 313 | 138 | 6.04 | 0.0011 | 183000 | – | 1960 | 0.0125 | 6510
13 | B13 | 4.5 | 6.4 | 1.8 | – | – | – | – | – | – | –
14 | B14 | 5.7 | 41 | 2.6 | – | – | – | – | – | – | –
15 | B15 | 31 | 2500 | 755 | – | – | – | – | – | – | –
16 | B16 | 2.5 | 8.1 | 2.1 | – | – | – | – | – | – | –
17 | B17 | 24 | 3320 | 505 | – | – | – | – | – | – | –
18 | B18 | 4.8 | 5.2 | 2.5 | – | – | – | – | – | – | –
19 | B19 | 4.8 | 41 | 1.9 | – | – | – | – | – | – | –
20 | B20 | 29 | 3350 | 469 | – | – | – | – | – | – | –
21 | B21 | 14 | 2350 | 425 | – | – | – | – | – | – | –
22 | B22 | 6.2 | 7.6 | 2.3 | – | – | – | – | – | – | –
23 | B23 | 2.8 | 31 | 2.4 | – | – | – | – | – | – | –
24 | B24 | 4.7 | 684 | 4.3 | – | – | – | – | – | – | –
25 | B25 | 3.8 | 43 | 1.6 | – | – | – | – | – | – | –
26 | B26 | 3.8 | 16 | 2.7 | – | – | – | – | – | – | –
27 | B27 | 4.6 | 22 | 2 | – | – | – | – | – | – | –
28 | B28 | 29 | 1550 | 939 | – | – | – | – | – | – | –
